Sequences and labels used below:
B1: Proteasome activator complex subunit 4 (Homo sapiens), Q14997 (parent)
chain: MEPAERAGVGEPPEPGGRPEPGPRGFVPQKEIVYNKLLPYAERLDAESDLQLAQIKCNLGRAVQLQELWPGGLFWTRKLSTYIRLYGRKFSKEDHVLFIKLLYELVSIPKLEISMMQGFARLLINLLKKKELLSRADLELPWRPLYDMVERILYSKTEHLGLNWFPNSVENILKTLVKSCRPYFPADATAEMLEEWRPLMCPFDVTMQKAITYFEIFLPTSLPPELHHKGFKLWFDELIGLWVSVQNLPQWEGQLVNLFARLATDNIGYIDWDPYVPKIFTRILRSLNLPVGSSQVLVPRFLTNAYDIGHAVIWITAMMGGPSKLVQKHLAGLFNSITSFYHPSNNGRWLNKLMKLLQRLPNSVVRRLHRERYKKPSWLTPVPDSHKLTDQDVTDFVQCIIQPVLLAMFSKTGSLEAAQALQNLALMRPELVIPPVLERTYPALETLTEPHQLTATLSCVIGVARSLVSGGRWFPEGPTHMLPLLMRALPGVDPNDFSKCMITFQFIATFSTLVPLVDCSSVLQERNDLTEVERELCSATAEFEDFVLQFMDRCFGLIESSTLEQTREETETEKMTHLESLVELGLSSTFSTILTQCSKEIFMVALQKVFNFSTSHIFETRVAGRMVADMCRAAVKCCPEESLKLFVPHCCSVITQLTMNDDVLNDEELDKELLWNLQLLSEITRVDGRKLLLYREQLVKILQRTLHLTCKQGYTLSCNLLHHLLRSTTLIYPTEYCSVPGGFDKPPSEYFPIKDWGKPGDLWNLGIQWHVPSSEEVSFAFYLLDSFLQPELVKLQHCGDGKLEMSRDDILQSLTIVHNCLIGSGNLLPPLKGEPVTNLVPSMVSLEETKLYTGLEYDLSRENHREVIATVIRKLLNHILDNSEDDTKSLFLIIKIIGDLLQFQGSHKHEFDSRWKSFNLVKKSMENRLHGKKQHIRALLIDRVMLQHELRTLTVEGCEYKKIHQDMIRDLLRLSTSSYSQVRNKAQQTFFAALGAYNFCCRDIIPLVLEFLRPDRQGVTQQQFKGALYCLLGNHSGVCLANLHDWDCIVQTWPAIVSSGLSQAMSLEKPSIVRLFDDLAEKIHRQYETIGLDFTIPKSCVEIAELLQQSKNPSINQILLSPEKIKEGIKRQQEKNADALRNYENLVDTLLDGVEQRNLPWKFEHIGIGLLSLLLRDDRVLPLRAIRFFVENLNHDAIVVRKMAISAVAGILKQLKRTHKKLTINPCEISGCPKPTQIIAGDRPDNHWLHYDSKTIPRTKKEWESSCFVEKTHWGYYTWPKNMVVYAGVEEQPKLGRSREDMTEAEQIIFDHFSDPKFVEQLITFLSLEDRKGKDKFNPRRFCLFKGIFRNFDDAFLPVLKPHLEHLVADSHESTQRCVAEIIAGLIRGSKHWTFEKVEKLWELLCPLLRTALSNITVETYNDWGACIATSCESRDPRKLHWLFELLLESPLSGEGGSFVDACRLYVLQGGLAQQEWRVPELLHRLLKYLEPKLTQVYKNVRERIGSVLTYIFMIDVSLPNTTPTISPHVPEFTARILEKLKPLMDVDEEIQNHVMEENGIGEEDERTQGIKLLKTILKWLMASAGRSFSTAVTEQLQLLPLFFKIAPVENDNSYDELKRDAKLCLSLMSQGLLYPHQVPLVLQVLKQTARSSSWHARYTVLTYLQTMVFYNLFIFLNNEDAVKDIRWLVISLLEDEQLEVREMAATTLSGLLQCNFLTMDSPMQIHFEQLCKTKLPKKRKRDPGSVGDTIPSAELVKRHAGVLGLGACVLSSPYDVPTWMPQLLMNLSAHLNDPQPIEMTVKKTLSNFRRTHHDNWQEHKQQFTDDQLLVLTDLLVSPCYYA

This is an account of results in IntAct's records for PubMed 23706739.

In the experiment the parent is B1. Conditions: with h4_human H4C16, P62805.
As for N1716T;F1717S, the “effect of a mutation on the interaction” value is given as “disrupting interaction strength”.
